Results from patent US20260374873 (published 2026).

Legend:
rat B7-H3 on CHO-S = target: T1, rat B7-H3 on CHO-S (rat, UniProt Q7TPB4); assay: FACS
T1 chain: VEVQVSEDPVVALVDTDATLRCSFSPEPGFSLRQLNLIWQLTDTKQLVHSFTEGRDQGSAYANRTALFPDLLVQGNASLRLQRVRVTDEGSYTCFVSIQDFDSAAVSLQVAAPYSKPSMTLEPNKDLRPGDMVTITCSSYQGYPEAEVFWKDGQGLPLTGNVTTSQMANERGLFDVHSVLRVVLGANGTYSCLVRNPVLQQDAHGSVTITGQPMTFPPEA

human B7-1 = target: T2, human B7-1 (human, UniProt P33681); assay: ELISA
T2 chain: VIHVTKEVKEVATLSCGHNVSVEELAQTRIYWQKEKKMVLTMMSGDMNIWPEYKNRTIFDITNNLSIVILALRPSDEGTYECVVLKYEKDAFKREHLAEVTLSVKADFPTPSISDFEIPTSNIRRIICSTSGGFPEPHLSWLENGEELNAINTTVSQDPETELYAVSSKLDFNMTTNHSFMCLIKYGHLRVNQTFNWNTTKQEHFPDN

human B7-2 = target: T3, human B7-2 (human, UniProt P42081); assay: ELISA
T3 chain: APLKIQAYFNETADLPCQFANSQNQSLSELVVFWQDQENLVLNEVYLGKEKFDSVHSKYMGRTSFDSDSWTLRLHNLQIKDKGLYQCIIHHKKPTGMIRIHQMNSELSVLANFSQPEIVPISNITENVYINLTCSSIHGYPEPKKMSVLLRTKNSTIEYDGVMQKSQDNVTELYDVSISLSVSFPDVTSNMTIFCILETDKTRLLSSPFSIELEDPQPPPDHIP

human B7-H2 = target: T4, human B7-H2 (human, UniProt O75144); assay: ELISA
T4 chain: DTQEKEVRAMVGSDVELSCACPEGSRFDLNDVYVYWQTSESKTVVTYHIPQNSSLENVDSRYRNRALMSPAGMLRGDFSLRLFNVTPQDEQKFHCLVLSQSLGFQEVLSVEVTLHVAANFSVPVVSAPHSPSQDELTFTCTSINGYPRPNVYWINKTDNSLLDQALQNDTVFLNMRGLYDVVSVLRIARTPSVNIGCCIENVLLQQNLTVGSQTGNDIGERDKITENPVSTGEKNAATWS

rat B7-H3 = target: T5, rat B7-H3 (rat, UniProt Q7TPB4); assay: BLI
T5 chain: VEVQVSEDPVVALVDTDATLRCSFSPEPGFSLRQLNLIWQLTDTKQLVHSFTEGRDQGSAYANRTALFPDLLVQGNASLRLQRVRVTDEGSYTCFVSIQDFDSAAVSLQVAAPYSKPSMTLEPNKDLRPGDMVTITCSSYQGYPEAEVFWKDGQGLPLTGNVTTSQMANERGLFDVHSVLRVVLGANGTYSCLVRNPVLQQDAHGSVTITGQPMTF

human B7-H1 = human B7-H1 (human, UniProt Q9NZQ7); assay: ELISA
Sequence of human B7-H1 (Q9NZQ7 19-238): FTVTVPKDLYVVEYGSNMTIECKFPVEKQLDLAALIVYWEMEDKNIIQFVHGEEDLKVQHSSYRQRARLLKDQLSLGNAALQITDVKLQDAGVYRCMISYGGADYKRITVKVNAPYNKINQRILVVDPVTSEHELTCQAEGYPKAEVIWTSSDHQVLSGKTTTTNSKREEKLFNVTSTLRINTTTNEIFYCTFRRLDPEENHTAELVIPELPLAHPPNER

human B7-H4 = target: T6, human B7-H4 (human, UniProt Q7Z7D3); assay: ELISA
T6 chain: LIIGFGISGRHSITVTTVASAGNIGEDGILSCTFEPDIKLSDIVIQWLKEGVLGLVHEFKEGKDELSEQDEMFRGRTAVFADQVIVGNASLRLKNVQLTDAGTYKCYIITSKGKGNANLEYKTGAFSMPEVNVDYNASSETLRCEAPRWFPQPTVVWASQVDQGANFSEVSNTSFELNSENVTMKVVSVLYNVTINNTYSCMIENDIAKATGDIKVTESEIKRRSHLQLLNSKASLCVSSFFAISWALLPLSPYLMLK

Measured: binding result

B1: 2#8890 (antibody, V domains shown)
VH: QVQLQESGPGLVQPSGTLSLTCAVSGGSDSSTNWWTWVRQSPGQGLEWIGEISPIGFTSYSPSLRSRVTISVDKSKTQFSLKLSSVTAADTAVYYCARDRLYFAFWGQGTLVTVSS
VL: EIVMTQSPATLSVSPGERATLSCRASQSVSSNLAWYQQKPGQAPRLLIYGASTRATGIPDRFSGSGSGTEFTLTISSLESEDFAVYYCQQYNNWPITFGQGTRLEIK
no binding: all assays above
